Assay results published in publication PMC3305813 (Neuron, 2012).

Columns and labels:
[1] = molecular target: CYSL-1 (Caenorhabditis elegans, UniProt Q93244, R259K); assay: O-acetylserine sulfhydrylase assay; type: biochemical; details: co-substrate sulfide
[2] = molecular target: T1, recombinant CYSL-1 (C. elegans, UniProt Q93244 1-341); assay: other fluorescence titration
T1 sequence (looked up): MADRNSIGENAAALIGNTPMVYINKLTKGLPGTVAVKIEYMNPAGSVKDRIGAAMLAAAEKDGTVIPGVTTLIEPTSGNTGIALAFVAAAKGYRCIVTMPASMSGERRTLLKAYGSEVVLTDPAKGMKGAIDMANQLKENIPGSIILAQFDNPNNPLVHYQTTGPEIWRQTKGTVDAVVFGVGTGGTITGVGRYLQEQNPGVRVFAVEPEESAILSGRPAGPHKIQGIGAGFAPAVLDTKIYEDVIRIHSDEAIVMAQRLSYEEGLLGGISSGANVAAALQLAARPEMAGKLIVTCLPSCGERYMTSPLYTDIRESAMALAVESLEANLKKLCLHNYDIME

Sequence of CYSL-1 (Q93244 whole entry R259K): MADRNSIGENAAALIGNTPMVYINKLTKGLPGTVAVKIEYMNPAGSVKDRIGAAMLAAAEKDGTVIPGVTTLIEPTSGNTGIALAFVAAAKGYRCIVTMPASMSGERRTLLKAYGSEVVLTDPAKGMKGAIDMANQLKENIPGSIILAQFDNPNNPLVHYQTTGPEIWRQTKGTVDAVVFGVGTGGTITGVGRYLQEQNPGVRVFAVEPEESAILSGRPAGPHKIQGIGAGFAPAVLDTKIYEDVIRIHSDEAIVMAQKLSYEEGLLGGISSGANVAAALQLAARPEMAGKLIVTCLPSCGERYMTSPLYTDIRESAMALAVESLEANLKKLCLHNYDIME

`CC(=O)OC[C@H](N)C(=O)O` [OAS] was tested, and the O-acetylserine sulfhydrylase assay [1] was “exhibited levels of OAS sulfhydrylase activity similar to that of wild-type CYSL-1”.

PPSTNPEYYI (peptide, UniProt G5EBV0 714-723, looked up) [EGL-9 C-terminal peptide, last 10 residues]: binds [2].

GLPPPPSTNPEYYI (peptide, UniProt G5EBV0 710-723, looked up) [EGL-9 C-terminal peptide, last 14 residues]: binds [2].
